Data on ten molecules can be found in patent US20240182575A1 (Ablynx, published 2024).

Assay [1] concerns the target T1, rhB7H1-Fc (fusion protein of the extracellular part of human B7-H1 (PD-L1) and mouse Fc gamma 1, R&D Systems … (human; mouse, UniProt Q9NZQ7 19-238; P01868 98-324 = IgG part, limits assumed).
T1 construct: extracellular domain;domain: Fc; bought; also called B7-H1 ectodomain
Nature of the assay: ELISA, coated B7-H1.

Assay [2] deals with T1, rhB7H1-Fc (fusion protein of the …). Briefly: competition ELISA, coated B7-H1; blocked ligand PD-1-biotin. As for the experimental part: Next, 0.5 μg/ml of PD-1 was preincubated with a dilution series of purified Nanobody.
Assay [3] has as its target T2, rhPDL2-Fc (fusion protein of the extracellular part of human PD-L2 and mouse Fc gamma 1, R&D Systems Cat … (human; mouse, UniProt Q9BQ51 20-220; P01868 98-324 = IgG part, limits assumed).
T2 construct: extracellular domain;domain: Fc; bought; also called PD-L2 ectodomain
Briefly: ELISA, coated PD-L2. As for the experimental part:
In short, 5 μg/ml PD-L2 ectodomain (R&D Systems, Minneapolis, US, Cat #1224-PL) was immobilized on maxisorp microtiter plates (Nunc, Wiesbaden, Germany) and free binding sites were blocked using 4% Marvel in PBS. Next, 10 μl of periplasmic extract containing Nanobody of the different clones in 100 μl 2% Marvel PBST were allowed to bind to the immobilized antigen. […] Binding specificity was determined based on OD values compared to controls having received no Nanobody (low control).
After expression, the obtained Nanobodies were purified via the His-tag on Talon beads.

Assay [4] deals with T3, human CTLA4 (Y201 mutated to valine) on stably transfected CHO-K1 cells (human, UniProt P16410 36-223).
T3 construct: whole, on cells; the mutation of the intracellular position Y201 keeps the protein on the membrane; also called human CTLA4 overexpressing CHO cells; human CTLA4 transfectant
Nature of the assay: FACS, direct binding titration on human CTLA4 CHO cells (head prints IC50). The protocol:
Binding of putative CTLA4 reactive Nanobodies clones was detected using unlabeled anti-c-myc tag mouse monoclonal antibody 9E10, followed by a phycoerythrin conjugated F(ab′)2 derived from goat-anti-mouse IgG (human and bovine crossabsorbed), and read on a BD FACSarray instrument. Dead cells were excluded from the analysis by gating out TOPRO3 vital dye positive scoring cells. Binding of the Nanobodies to cells was evaluated in BD FACSarray control software as PE channel histograms.

Assay [5] concerns the target T4, HuCTLA4-HuIgG1 (fusion protein of the extracellular part of human CD152 and human Fc gamma 1, CTLA4-Ig) (human, UniProt P16410 36-161).
T4 construct: extracellular domain; also called CTLA4-hFc; CTLA4-Fc; not shown: human Fc gamma 1
Briefly: alphascreen; competitor biotinylated HuCD80-MuIgG2a. An excerpt: Individual clones were scored as putative CTLA4/CD80 interaction inhibiting if the presence of the periplasmic extract decreased the fluorescent signal of the acceptor beads.

Assay [6] concerns the target T4, HuCTLA4-HuIgG1 (fusion protein of the …). Briefly: SPR, Biacore T100, CTLA4-Ig amine-coupled. As for the experimental part: Affinity constants (Kd) of individual purified Nanobody clones were determined by surface plasmon resonance on a Biacore T100 instrument. […] Remaining reactive groups were inactivated using ethanolamine. […] Each sample was injected for 2 min at a flow rate of 45 μl/min to allow for binding to chip-bound antigen. Next, binding buffer without Nanobody was sent over the chip at the same flow rate to allow for dissociation of bound Nanobody. After 2 min, remaining bound analyte was removed by injecting regeneration solution (10 mM Glycine/HCl pH 1.5). Binding curves obtained at different concentrations of Nanobody were used to calculate KD values. For some clones, only a single undetermined concentrations of Nanobody was injected.

Assay [7] has as its target T5, cynomolgus monkey CTLA4 on stably transfected CHO-K1 cells (human CTLA4 cDNA with S13N, I17T and L105M) (human backbone with cynomolgus monkey …, UniProt P16410 36-223).
T5 chain: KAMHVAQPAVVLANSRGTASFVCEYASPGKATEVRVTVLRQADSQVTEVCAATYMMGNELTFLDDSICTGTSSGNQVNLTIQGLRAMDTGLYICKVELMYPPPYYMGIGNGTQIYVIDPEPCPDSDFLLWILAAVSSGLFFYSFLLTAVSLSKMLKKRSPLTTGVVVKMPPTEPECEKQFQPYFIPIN
Nature of the assay: FACS, direct binding titration on cyno CTLA4 CHO cells (head prints IC50).

The target of assay [8] is T3, human CTLA4 (Y201 mutated to valine) on …. Nature of the assay: FACS competition, human CTLA4 CHO cells; blocked ligand CD80-Fc. The source says:
The potency of selected Nanobodies to inhibit the interaction of CTLA4 with CD80 was also ranked using FACS based screening method. […] This concentration was previously determined to be the minimal amount required to saturate all CD80 binding sites on both human and cyno CTLA4 expressing CHO cell clones in the absence of any CTLA4 interaction blocking proteins. […] Dead cells were stained by including TOPRO3 vital dye in the final resuspension buffer. All samples were read on a BD FACSarray instrument. Dead cells were excluded from the analysis by gating out TOPRO3 vital dye positive scoring cells.

Assay [9] addresses T2, rhPDL2-Fc (fusion protein of the …). Briefly: competition ELISA, coated PD-L2; blocked ligand PD-1-biotin. The protocol:
In short, 2 μg/ml PD-L2 ectodomain (R&D Systems, Minneapolis, US, Cat #1224-PL) was immobilized on maxisorp microtiter plates (Nunc, Wiesbaden, Germany) and free binding sites were blocked using 4% Marvel in PBS. Next, 0.5 μg/ml of PD-1 was preincubated with a dilution series of purified Nanobody.

Positions count from the first letter of the chain named.

T4 sequence (P16410 36-161 limits assumed): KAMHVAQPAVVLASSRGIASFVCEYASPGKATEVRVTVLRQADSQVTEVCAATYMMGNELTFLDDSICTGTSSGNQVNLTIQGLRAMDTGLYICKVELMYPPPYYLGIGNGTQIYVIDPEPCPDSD
T1 sequence (Q9NZQ7 other isoform, or with tags, fused parts or gaps limits assumed): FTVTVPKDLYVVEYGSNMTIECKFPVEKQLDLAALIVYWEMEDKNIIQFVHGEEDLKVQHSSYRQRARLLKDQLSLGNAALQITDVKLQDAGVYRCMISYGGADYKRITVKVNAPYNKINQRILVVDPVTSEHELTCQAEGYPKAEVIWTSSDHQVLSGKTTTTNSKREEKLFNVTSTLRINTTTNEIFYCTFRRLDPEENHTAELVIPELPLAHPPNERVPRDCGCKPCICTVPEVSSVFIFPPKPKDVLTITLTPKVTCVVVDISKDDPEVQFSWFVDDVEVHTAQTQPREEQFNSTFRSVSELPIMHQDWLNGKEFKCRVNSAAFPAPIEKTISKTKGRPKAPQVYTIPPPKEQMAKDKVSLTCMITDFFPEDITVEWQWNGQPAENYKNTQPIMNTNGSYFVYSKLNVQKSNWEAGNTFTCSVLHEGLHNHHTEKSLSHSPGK
T2 sequence (Q9BQ51 other isoform, or with tags, fused parts or gaps limits assumed): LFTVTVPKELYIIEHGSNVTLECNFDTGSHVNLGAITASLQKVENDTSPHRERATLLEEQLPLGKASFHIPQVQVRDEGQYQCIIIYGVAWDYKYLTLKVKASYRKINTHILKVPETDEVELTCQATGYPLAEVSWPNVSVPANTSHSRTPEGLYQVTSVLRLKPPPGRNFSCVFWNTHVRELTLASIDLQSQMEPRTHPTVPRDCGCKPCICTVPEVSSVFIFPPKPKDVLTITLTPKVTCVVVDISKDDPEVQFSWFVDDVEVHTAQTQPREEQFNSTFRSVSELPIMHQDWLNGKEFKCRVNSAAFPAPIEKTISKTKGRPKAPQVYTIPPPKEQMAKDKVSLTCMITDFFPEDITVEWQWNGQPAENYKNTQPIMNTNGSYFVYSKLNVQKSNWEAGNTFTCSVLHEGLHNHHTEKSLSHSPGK

B1: 104E12 (VHH)
VHH: EVQLVESGGGLVQPGGSLRLSCAASGFTFDYYAIGWFRQAPGKAREGVSCISGGDNSTYYADSVKGRFTISRDNAKNTVYLQMNSLKPEDTAVYYCATGGWKYCSGYDPEYIYWGQGTQVTVSS
B1: the “EC50 (read off the curve)” value in assay [1] was around 10 nM.

B2: 104D2 (VHH)
VHH: EVQLVESGGGLVQPGGSLRLSCAASGFTLDYYAIGWFRQAPGKEREWASSISSSDGSTYYADSVKGRFTISRDNAKNTVFLQMNSLKPEDTAVYSCAASQAPITIATMMKPFYDYWGQGTQVTVSS
In the case of B2, the “IC50 (read off the curve)” value in assay [2] is around 10 nM. The “EC50 (read off the curve)” value in assay [1] was in the range of 5 to 6 nM.

B3: 104F5 (VHH)
VHH: EVQLVESGGGLVQPGGSLRLSCAASGFTLDYYAKCWFRQAPGKEREWVSCISSSDGSTYYADSVKGRFTISRDNAKNTVYLQMNSLKPEDTAVYFCAARHGGPLTVEYFFDYWGQGTQVTVSS
On to B3, for which, in [2], the “IC50 (read off the curve)” value is around 9 nM. For the same molecule, the “EC50 (read off the curve)” value in assay [1] is around 3 nM.

B4: 103F10 (VHH)
VHH: EVQLVESGGGLVQAGGSLRLSCAASGRTFSSGTMGWFRRAPGKEREFVASIPWSGGRTYYADSVKDRFTISRDNAQNTVFLQMNSLKPEDTAVYYCAFKERSTGWDFASWGQGIQVTVSS
notes: Nanobody against PD-L2
In the case of B4, the “EC50 (read off the curve)” value in assay [3] was around 20 nM.

B5: 4CTLAPMP2G9 (VHH)
VHH: EVQLVKSGGQLVQAGGSLRLSCAATGRTYNSYPLGWFRQAPGKEREFVAAISASGTLRAYADSVKGRFTISRDSAKNTVYLQMNNLKPEDTAVYYCARARSVGWRASHHLSDYDNWGQGTQVTVSS
notes: short label tied to the entry by the clone code only; not shown: C-terminal c-myc tag and His6 tag
In assay [4], B5 yielded an IC50 of 2.47 nM. In [5], this molecule showed an IC50 of 2.01 nM. In assay [6], this molecule came in with a Kd of 1.69 nM, a dissociation rate constant (koff) of 0.00732 s⁻¹ and a kon of 4.35e+06 M⁻¹ s⁻¹. This molecule returned an IC50 in assay [7] of 2.66 nM.

B6: 4CTLAPMP02F2 (VHH)
VHH: EVQLMESGGGLVQTGGSLRLSCAASGRTFSNYTMGWFRQAPGKDREFVAAISRSGSLKAYADSVKGRFTPSRDNAKKMAYLQMNSLKPEDTAVYYCAAAPVPWGTRPSLFPYDSWGQGTQVTVSS
notes: as for B5
As for B6, the IC50 in assay [4] is 2.56 nM. Moreover, the “IC50 (read off the curve)” value in assay [8] is around 10 nM. In assay [6], this molecule registered an equilibrium dissociation constant (Kd) of 0.638 nM, a koff of 0.00391 s⁻¹ and a kon of 6.13e+06 M⁻¹ s⁻¹. For the same molecule, the IC50 in assay [7] turned out to be 2.42 nM.

B7: 4CTLAPMP02G2 (VHH)
VHH: B6 VHH with M5V, G8R, A59S, P70I, L109F, P111T
notes: as for B5
Turning to B7, the IC50 in [4] came to 2.28 nM. The “IC50 (read off the curve)” value in assay [8] was around 8 nM. In addition, in assay [6], binding was put at a Kd of 0.478 nM, the koff is 0.00355 s⁻¹ and the kon is 7.42e+06 M⁻¹ s⁻¹. For the same molecule, in assay [7], the half-inhibitory concentration (IC50) came to 2.08 nM.

B8: 103D3 (VHH)
VHH: EVQLVESGGGLVEPGGSLRLSCVASGFTFSSYDMSWVRQAPGKGLEWVSTINSGGGITYRGSVKGRFTISRDNAKNTLYLQMNSLKPEDTAVYYCENGGSSYRRGQGTQVTVSS
notes: Nanobody against PD-L2
Consider B8, for which the “IC50 (read off the curve)” value in assay [9] is around 10 nM. Moreover, the “EC50 (read off the curve)” value in assay [3] is around 7 nM.

B9: 103E3 (VHH)
VHH: EVQLVESGGGLVQTGGSLRLSCAASGFTLDYYGIGWFRQAPGKEREGVSFISGSDGSTYYAESVKGRFTISRDKAKNTVYLQMNSLKPEDTAVYYCAADPWGPPSIATMTSYEYKHWGQGTQVTVSS
notes: Nanobody against PD-L2
For the molecule B9, in [3], the binding result is given as “binds”.

B10: 104B10 (VHH)
VHH: EVQLVESGGGLVQAGGSLRLSCAASGSTFSQYDVGWYRQAPGKQRELVAFSSSGGRTIYPDSVKGRFTFSRDNTKNTVYLQMTSLKPEDTAVYYCKIDWYLNSYWGQGTQVTVSS
Consider B10, for which the “IC50 (read off the curve)” value in assay [2] is around 20 nM.
